From patent US20130273143A1 (UNIVERSITY OF CINCINNATI, published 2013)

Molecular target: T1, Bcl-2 (mouse, UniProt P10417 1-236)
T1 construct: Endogenous protein from wild-type mouse heart homogenate
Test: co-immunoprecipitation from WT mouse heart homogenate with anti-Hsp20 antibody, immunoblot with anti-Bcl-2
Source text: Mouse heart homogenates are immunoprecipitated with anti-Hsp20 (d) or anti-Bax antibodies (e). Proteins are separated on SDS-PAGE gels and probed with anti-Bax (d1) or anti-Hsp20 antibodies (e1). Then, membrane (d1) is stripped and re-probed with anti-Bcl-2(d2); subsequently, this membrane (d2) is re-stripped and re-probed with anti-Hsp20 (d3). Similarly, membrane (e1) is stripped and re-probed with anti-Bax antibodies (e2). […] Homogenates are obtained from pre-ischemic/reperfused (g and i) and post-ischemic/reperfused (h and j) WT and TG hearts that are subjected to occlusion of LAD artery for 30 minutes and reperfusion for 24 hours. Homogenates are extracted by use of a solubilization solution of 7 mol/L urea, 2 mol/L thiourea, 4% CHAPS, 20 mmol/L DTT, 20 mmol/L spermine, and 1 mmol/L PMSF. Extract is centrifuged (100 000 g, 1 hour, at 10° C.), and 500 μg from each preparation is separated by 2D electrophoresis, using isoelectric focusing strips (Immobiline Drystrips, 18 cm, pH 4 to 7). […]
Association of Hsp20 with Bax and Bcl-2 is studied using Dynabeads Protein G (Dynal Biotech) according to the manufacturer's instructions. […] Finally, the proteins are eluted off (using 0.1 mol/L citrate), and their identity is determined by immunoblotting.

T1 sequence (P10417 whole entry): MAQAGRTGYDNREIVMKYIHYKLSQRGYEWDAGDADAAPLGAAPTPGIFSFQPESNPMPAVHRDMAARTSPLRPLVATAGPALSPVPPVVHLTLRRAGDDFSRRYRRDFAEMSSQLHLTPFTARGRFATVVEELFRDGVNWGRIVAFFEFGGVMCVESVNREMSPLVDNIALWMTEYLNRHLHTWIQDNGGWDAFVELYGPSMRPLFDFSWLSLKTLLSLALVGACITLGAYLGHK

B1: Heat-Shock Protein Hsp20 (other, mouse, UniProt Q5EBG6 1-162, looked up)
chain: MEIPVPVQPSWLRRASAPLPGFSAPGRLFDQRFGEGLLEAELASLCPAAIAPYYLRAPSVALPTAQVSTDSGYFSVLLDVKHFLPEEISVKVVDDHVEVHARHEERPDEHGFIAREFHRRYRLPPGVDPAAVTSALSPEGVLSIQATPASAQAQLPSPPAAK
notes: Endogenous protein from wild-type mouse heart homogenate, used in co-immunoprecipitation; also called mcHsp20
  binding result: no binding
